Results on 23 sequences are retold here after the DeepSol protein solubility set.

The nature of the series: soluble on expression in E. coli; label from the status in PepcDB or PDB records.
Regarding “MKAEKVRLRKQIIEHMNSLSEEQYTTLSEQIAFSLYAQKEWVEAKTIGITLSMENEVNTYPIIEKAWEEGKKVVVPKCNKGTRTMSFRQINNFDQLETVYMNLREPIPGLTEEVNMDEIDLQIVPGVAYTERGERIGYGGGYYDRYLVHYKGKTLSLAYDFQMVKHIPVEPFDKNIEKIITEKGTLLTNKLVLEHHHHHH”, the “soluble on expression in E. coli” value is given as “soluble”. As for “MKAERILGALYGQALGDAMGMPSELWPRTRVKAHFGWIDRFLPGPKENNAACYFNRAEFTDDTAMALCLADALLECEGNIDPEIIGRNILAWAERFDAFNKNVLGPTSKIALNAIRDGKPIAALENNGVTNGAAMRVSPLGCLLPPTNLTAFIAEVALASSPTHKSDLAVAGAVVVAWAVSRAVNGDTWQSIADSLPAVAHQAQTARITTFSASLSARLELALNIVRHADGVESASEQLYQIIGAGTSTIESVPCAIAMVELANTDPNRCAVLCANLGGDTDTIGAMATAICGALHGVSAINPQLKQTLDEVNQLDFARYAVALASYRQRREALLEHHHHHH”, the entry is “soluble”; as for “MKAREILEILNAELLTGEENLDMEFNAACGSDLMSDVMAYVKENVVLLTGLVNPQVIRTAEMMDIKLVVFIRGKRPEEKIIQMAKEKGIAIMTTNDPMFIACGKLYSAGITERGVWD”, “not soluble”; as for “MKCIETPKSAEEWRKVERTFAKKHILRCLGSLDGKHIRIKAPPHSGSLFFNYKHFFSFVLLVVVDADGRVIWVDVGSPGSNNDASIFSDSKLKTILDEEANLPPPTFWSRDFVVKPFVIADGIFKITPRMMTLYGGNGLNISQKVLNKKLSRARVKAEHAFGRLSAKFRILRREMECPYEKSVDIILALCHLHNYLIGKAEDVVNVPIETNMIPYKDGKEQRDYLCRYLNN”, “not soluble”. As for “MKCKVYTVVVPNVQSATLLPIIREKVKPDSIVYTDTFRSYDVLDVSEFSHFRINHSTHFAENHNYINGIGNFWNHAKRHLQKFNGIPKEHFELYLKECEWRFNNSEIKSQISILKQLVKGSLVLEHHHHHH”, the entry is “not soluble”. As for “MKDLSSIVAKFNTQGTITEIKPLGAGLINDTYKVNTQEADAPDYVLQRINHAIFQNVEMLQSNIAAVTGHIRKKLTEAGEADIDRKVLSFLATEEGKTYWFDGESYWRVMVFIPRAKTYETVNPEYSNYAGEAFGNFQAMLADIPETLGETIPDFHNMEFRLKQLRDAVAANAAGRVAEVQYYLDEIEKRADEMCKAERLFREGKLPKRVCHCDTKVNNMMFDEDGKVLCVIDLDTVMPSFIFSDYGDFLRTGANTGDEDDKDLNRVNFNMEIFKAFTKGYLKGAKSFLTPIEIENLPYAAALFPYMQCVRFLADYINGDTYYKIKYPEHNLVRTKAQFKLLQSVEEHTPEMVAFINECLVNGLEHHHHHH”, the entry is “soluble”.

Take “MKDNLKEARRYLNNAKEMLSQKAKKEGKFYQDKKYIRLAGHAAYSGVLIALDNVLGNKDSGRKSVDWYKSELAKLDKKALTAFNGAYETLHLAMSYDGNIVANVSKSGIELADSIITWAETRTAAA”: the “soluble on expression in E. coli” value was “not soluble”. With “MKDPLLNSLIYVSRYYGLANSPEALVNGLPLSDGKLTPFLLPRAAERAGLVAKENRAELEKISSLILPAILVLKGGDSCVLNSINMETREAEVTTLESGMVPISIPLEDLLEQYTGRYFLVKKQFRFDERSPEVLKTKEGHWFWSTLWQSKRIYRD” the entry was “not soluble”; with “MKDVTIYHNPRCSKSRETLALVEQQGITPQVVLYLETPPSVDKLKELLQQLGFSDARQLMRTKEDLYKTLNLDDRGLTQDQLLQAMADNPKLIERPIVVTQGKARIGRPPEQVLEILK”, “not soluble”; with “MKEHQKLEHPAQVKTKSFEDAAFEMLSTVSPIKLPRDEIPFDSVREIVLGEIIKSKQRNSRSSANDRRNMDDLLDEAPSSSSSSSHVGESSSSNLDRGTMTDEGCTDIGGAPRPIAARLYGDCTRSSSTSTSSAAGPSCSSDVATVENSKKKPLNYREKRLAEIRAARLKKYRENAEIVEFKCEENCLAEVFTKYYLELLDDEAGPANLYYRVVESLDVYFRVKTWESNCPKLLCEFLCDHILKTCQQLNELHESKNMTDEWRARECQIQVLLTLHVYVVTDERRWLDEAINKLRMIYISVGAERLRTFVEEPVTDIYLELIGDGLATIYDELCINLPADLIQYDTGLFKMTETDDSLVVKRRNGAANRLEQMLNETSADLGVGGVERARRTSTEAAAPQRRSLKRRNIEDVPKELLSPARTTRTSRSDYKHFFVEDTPDEKYQKKTTKVEEIEMNEEEDGEIGAESTSKRKTVTIKEEIDEEVKQTPMAKLRASAKLNGKRCSKRLSDLVKLSEERTQVTKKARENLNKLLEKANTPIRSVTRPIRKSVLFGSAGSMSSSPATTKCARGTSSRTSLLNKFSEMEEKKKSPLAVDTSDGHIIHTPSSASESTTPVLRDRATRRRTTRFNDKNYQPNVLKQEMHDPEFDAMESSMASPSKRTTKNSSTAASASTTPVSKWTDRQLKRQLGLTREDLNRYREAMLTTGERNRNKNVKINWESAQVNRAGRVKGAGASEDGTPIFGIARRNVRTMICHVLLNDTNPDTSFDWNKVKFDDFCGKPRTRQFQSLIQKPEAYMESLKQKYIESRVSSAKRMRSNDGASTSSRPAKRRRSNASSPKKQTASSSASSTKSLKSPVKLEAFDDFGFESEADD”, “soluble”.

In the case of “MKEQNESFVVDFVGGAVGHRFRSGEGRGQALPKAAGFTKGRTPKIVDATAGLGRDAFLLASLGAEVTLIERSPGMHAHLADGISRALEAGGAYAEAASRMTLLQGDSRQLLKELSPEVVVIDPMHPPRHNTALVKKEMRVLRELVGSDPDQVELMEVALAHATKRVVLKWPLRADPMPGIRKPSHQIIGKNTRYDVFMIFGNSLDQQELEHHHHHH”, the “soluble on expression in E. coli” value is on record as “soluble”. As for “MKERIVGQSGELFCFGQMPVWKVENLPEVLLSGYSSEEGEWVCLNVLQGDVEVRAPDGAAEVWSAESGDCVFAPQQVFSVKPKTDDAEIRLSLYCAAADYFHKKYGMSATHSAVAAAQDTVPAGRALDMGCGQGRNALFLGLKGFDVTAADCNPAALANVAELAEAEGLNVRTLEYDLNAAALQGEFDYIVATVVLMFLMPQRVPDVIADMQAHTAAGGYNLIVSAMDTADFPCPMPFPFKFKEGELKDYYRDWELVEYKEELGAMHAKDENGNPIRFKFVTMLAKKPGLEHHHHHH”, the entry is “soluble”; as for “MKESLIEAKVMDYGKLKDIQKEILYYKLYVDALKKKGIKEKVDPPPTLPKSIVSSVLTGGIPRDGPLQIELVSNDVVKIKEYNTLVKIQSDSRLPLYAIVEYRDTDIRVYLAYRENPSIVGLDLGLRHLITIVAIKDTKPWKVRFFDEPKLMEKFANFLSENQGIIKLEEMKSNAKRIIYEAVSFIEDLEPKVVAMENLEYFETKTGKGLRALQNMLENEIRRRGIRYRKIDPYNTSRVCAKCGYKKGEILGSLFVCPACGYKADRDYNAAYNIALKCYYTCLEHHHHHH”, “not soluble”; as for “MKETCDLLAFGAHPDDVEIGMGGTIAKYVRRGYRIVICDLTQAELSSNGTVDERQREAAEAARRLGVSERFNLGLPDRGLYVEEEAIRQIAAVIRRYRPRLVFAPYWEDRHPDHGRCARLVEEAVFSAGIRRYGAGELGDAHRVRAVYYYMINAFCRPHFLIDISETINDKLDSLRAYESQFQKRPGSVDTPLTNGYIEMIESRERWFGQQIGAAYAEGFLTKTPIHLSNLFEEER”, “soluble”. Regarding “MKEVKKEYLTLDEVKILAQTPCEHDVLKRASLFSCLTGLRISDILNLRWEDFTLAPDQGYCIRIRTQKTSTEATLPISYEAYELCGEPSSGKVFKGLQRSMINYPLKKWIKQAGIMKHITFHCFRHSYAVIQISLGTDIYTVSKMLTHKNVSTTQIYADLEHHHHHH”, the “soluble on expression in E. coli” value is given as “not soluble”. On to “MKFAVIGGTGLIGSQVVKNLNAAGHEAVPHSQSTGIDVISGQGLDQAVAGADVIVNLTNSPTFDEASPAFFQTSMDNLLAAGRKAGVRHFVILSIVGVDQVPELDYYRAKALQEKILAAGPIPYSIVRATQFMEFIDAVLSWTADGDTVRLPATPIQPIAAKDVADAVAEVAAGAPLGGIRNVAGPEIFSLDELGRITLSHKSDGRTVVTDPTAGMFGAVKGDVLTDKDAHLAPTHYADWLS”, for which the “soluble on expression in E. coli” value is reported as “not soluble”. With “MKFDDSKPIYKQIVHYIHTEIVTGTYEAGDKLLSVRELATKLEVNPTTIQRAYAELEEAGIIFTVRGTGKYLTEDKRRIEQLENHIAKQLTENFISEMSKLGINKEKIIAWVKKVEEVEVNASGK” the entry was “not soluble”; with “MKFDVIIIGGSYAGLSAALQLGRARKNILLVDAGERRNRFASHSHGFLGQDGKAPGEIIAEARRQIERYPTIHWVEGRVTDAKGSFGEFIVEIDGGRRETAGRLILAMGVTDELPEIAGLRERWGSAVFHCPYCHGYELDQGKIGVIAASPMAIHHALMLPDWGETTFFTNGIVEPDADQHALLAARGVRVETTRIREIAGHADVVLADGRSIALAGLFTQPKLRITVDWIEKLGCAVEEGPMGSTIVTDPMKQTTARGIFACGDVARPAGSVALAVGDGAMAGAAAHRSILFPEMR”, “soluble”; with “MKFFDREREINEILHILNREPDDIYFIYGPLNSGKTALIKHIIENKLSDDYKVFYINFRTYLISEKREFIEAIFTTKKDDFFEKIKDKDEVLNLITKGVRILTGIPIPEVEFDKLFEEKINDAFQYLNSLLLEVKKSGKKPILIFDELQMIKDVVLNTENQRFSAFPSLRFGNGQKYLLKELFQFLVSLTKEQHLCHVFCLSSDSLFIEYVYSTGELEGRAKYLLVDDFDKETALKFMDFLAVENNINLTNEDKELIYSYVGGKPKDIKYVVEESKFKDLREILEFMLKDAVQKLDMFLDMLNYSKPKVDVGDEVIEIKKDNVIEALKLFKDEYEVSKKHIPVPVYTYLIKRNILFLNPIEGILKPQSYLVWNAIKRLL”, “not soluble”. With “MKFKKLLSRIIIATMITFTGTLSYQAIEQTHISHAAHNYYGKKQCTWWAFKRRAQLGKPVSNRWGNAKNWYSNARRSGYATGHKPRKYAVMQSTRGYYGHVAVVEKVYKNGKIKISEYNYNVPLGYGTRIISKSSARNYNYIYLEHHHHHH” the entry was “not soluble”; with “MKFKYGATLFSGFLGLSAILAACGAKGKFDQVDDGKIVLASSLTSKNAANALQAVVEKYNQVKGGNDYPIEITQITGGYDGGRGNLQTKLSVKDKTTFYNLI”, “soluble”. “MKFLHTADWHIGKKLHGFDLLAEQREAFEQILAIAKEEQVDAVVIAGDLYDRSVPAVEAVEIFNEMMIQMNLKEHFPVLAISGNHDSSTRLETGGPWFNQTQFHLNTRLEQAFQPIEIDNTQFYLLPYFEPIAARLYFEDETIRTIQAAMEKVVAKMQESFLPNKKQVLVSHFFVAGSEKTDSETKLTVGGLDVVPTALLEPFDYVALGHLHGKNALQAPNARYSGSPVKFSLSEMTQEKGVWLVETEAEVHFQFRALKPLRDIQQLTGSFQQLTDPAFYQEVNRENYLHVQLTDRAIIPNMMNQLRKIYPKIIGLERLNGRETSSGNQKKVVQIEQRSPEEHLHDFFNDVTGEALTEQQAQWVQEELSTLNQLERGK”: the “soluble on expression in E. coli” value was “not soluble”.

Regarding “MKFLILSVSAGGGHIHAAFALKKYIAKYLEGSQVKMLDTIKYLNPFLDKVLIGGYLKTLKVSPALFGKLYNFTEKDDNLASLSNKINEFMAYKLIPIIEDFNPDVIICTHPFPTEMVSILKSKESLKTPMLCILTDYAPHSFWIRPQVNSYVVSNSDMVDEMVRRGVNRENIYDLGIPVDPDFIRNFDKIETLNELNLSLNKKTILIMGGSLGIGKIEDIYEALSKSRANIQIIIITGNNKKLYSKLLELAEDSYVETRILGYTRDVNRYMQASDLLLTKPGGLTITEALICRVPLAVFSPIPGQEEKNEDFLLKHNLAISIRDSENCLGIIESLISNPELLQAMKDNCNKFSKPSSGKDICNLLINLINKNQKIDVNNADYRN”, the “soluble on expression in E. coli” value is on record as “not soluble”.
